{
  "source": "paper PMC5439444",
  "about": "(Vascular pharmacology, 2016)",
  "biological_target": "GST fusion protein of human full-length (FL) Pin1 (residues 1-163) (human, UniProt Q13526 1-163)",
  "sequence (Q13526 whole entry, the tested form may be a part)": "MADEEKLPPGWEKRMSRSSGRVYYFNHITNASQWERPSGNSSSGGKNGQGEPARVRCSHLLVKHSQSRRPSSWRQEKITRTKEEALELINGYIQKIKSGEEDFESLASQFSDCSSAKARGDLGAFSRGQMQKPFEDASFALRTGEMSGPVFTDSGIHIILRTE",
  "test": "pull-down",
  "data": [
    {"binder": "bovine phospho-mimetic S116D endothelial nitric oxide synthase (eNOS) (enzyme, UniProt P29473 1-1205, looked up) MGNLKSVGQEPGPPCGLGLGLGLGLCGKQGPASPAPEPSRAPAPATPHAPDHSPAPNSPTLTRPPEGPKFPRVKNWELGSITYDTLCAQSQQDGPCTPRCCLGSLVLPRKLQTRPDPGPPPAEQLLSQARDFINQYYSSIKRSGSQAHEERLQEVEAEVASTGTYHLRESELVFGAKQAWRNAPRCVGRIQWGKLQVFDARDCSSAQEMFTYICNHIKYATNRGNLRSAITVFPQRAPGRGDFRIWNSQLVRYAGYRQQDGSVRGDPANVEITELCIQHGWTPGNGRFDVLPLLLQAPDEAPELFVLPPELVLEVPLEHPTLEWFAALGLRWYALPAVSNMLLEIGGLEFSAAPFSGWYMSTEIGTRNLCDPHRYNILEDVAVCMDLDTRTTSSLWKDKAAVEINLAVLHSFQLAKVTIVDHHAATVSFMKHLDNEQKARGGCPADWAWIVPPISGSLTPVFHQEMVNYILSPAFRYQPDPWKGSATKGAGITRKKTFKEVANAVKISASLMGTLMAKRVKATILYASETGRAQSYAQQLGRLFRKAFDPRVLCMDEYDVVSLEHEALVLVVTSTFGNGDPPENGESFAAALMEMSGPYNSSPRPEQHKSYKIRFNSVSCSDPLVSSWRRKRKESSNTDSAGALGTLRFCVFGLGSRAYPHFCAFARAVDTRLEELGGERLLQLGQGDELCGQEEAFRGWAKAAFQASCETFCVGEEAKAAAQDIFSPKRSWKRQRYRLSTQAEGLQLLPGLIHVHRRKMFQATVLSVENLQSSKSTRATILVRLDTAGQEGLQYQPGDHIGICPPNRPGLVEALLSRVEDPPPPTESVAVEQLEKGSPGGPPPSWVRDPRLPPCTLRQALTFFLDITSPPSPRLLRLLSTLAEEPSEQQELETLSQDPRRYEEWKWFRCPTLLEVLEQFPSVALPAPLLLTQLPLLQPRYYSVSSAPNAHPGEVHLTVAVLAYRTQDGLGPLHYGVCSTWLSQLKTGDPVPCFIRGAPSFRLPPDPYVPCILVGPGTGIAPFRGFWQERLHDIESKGLQPAPMTLVFGCRCSQLDHLYRDEVQDAQERGVFGRVLTAFSREPDSPKTYVQDILRTELAAEVHRVLCLERGHMFVCGDVTMATSVLQTVQRILATEGDMELDEAGDVIGVLRDQQRYHEDIFGLTLRTQEVTSRIRTQSFSLQERHLRGAVPWAFDPPGPDTPGP", "values": [
      {"measurement": "amount bound relative to WT eNOS", "result": "> 2", "unit": "fold"}
    ]}
  ]
}
